From patent EP0730609B1

Biological target: IL4 receptor on the gibbon cell line MLA (gibbon)
Assay: displacement of 125I-IL4 (83 pM added) from gibbon MLA cells

IC50: 0.022 nM
Substance: recombinant human IL4 (E. coli, non-glycosylated) (from UniProt P05112 25-153) (ligand)
